{"source": "patent US20070098721A1", "assay_in_all_cases": "dot blot, antigen dilution series on nitrocellulose", "key": {"[1]": {"target": "Aβ(1-42) oligomers B (human amyloid β(1-42) oligomers having molecular weights of 38 kDa and 48 kDa; preparation of example 6b) (human) (UniProt P05067)", "sequence (P05067 672-713 limits assumed)": "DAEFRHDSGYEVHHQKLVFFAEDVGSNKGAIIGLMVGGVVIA"}, "[2]": {"target": "Aβ(1-42) fibril preparation of example 27 (human) (UniProt P05067)", "sequence (P05067 672-713 limits assumed)": "as above"}, "[3]": {"target": "HFIP-treated Aβ(1-42) monomer of example 1a (human amyloid β(1-42) protein) (human)", "sequence (peptide, as listed by the source)": "as the sequence (P05067 672-713 limits assumed) above"}}, "data": [{"substance": "monoclonal antibody 6E10 (Signet)", "values": [{"measurement": "minimum amount of antigen visible (detection limit)", "setting": "[1]", "value": 0.1, "unit": "pmol"}, {"measurement": "minimum amount of antigen visible (detection limit)", "setting": "[2]", "value": 1, "unit": "pmol"}, {"measurement": "minimum amount of antigen visible (detection limit)", "setting": "[3]", "value": 0.1, "unit": "pmol"}]}]}
